For test [1], the target named is hOX40L added as soluble protein in cell assays (human) (UniProt P23510). Description: cell-based or functional assay.
The target of test [2] is Recombinant Human OX40L Protein, His Tag (Acro Cat. IL3-H52H4) (human) (UniProt P23510). Description: SPR (Biacore 8K), antibody captured, human OX40L injected, 1:1 fit. In general terms: Surface plasmon resonance follows binding to a sensor surface in real time, without labels.

These results are taken from patent US20260217843A1.

The term Kd denotes the constant that tells how readily two partners part at equilibrium. By koff is commonly meant the first-order rate constant of dissociation. A word on the kon: it is the rate constant with which the complex forms.

Chain of Recombinant Human OX40L Protein, His Tag (Acro Cat. IL3-H52H4) (human) (P23510 51-183 limits assumed): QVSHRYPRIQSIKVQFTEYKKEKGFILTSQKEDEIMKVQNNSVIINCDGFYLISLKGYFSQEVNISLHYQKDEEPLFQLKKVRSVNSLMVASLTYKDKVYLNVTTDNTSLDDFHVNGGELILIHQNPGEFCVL
Chain of hOX40L added as soluble protein in cell assays (human) (P23510 51-183 limits assumed): as above

B1: positive control based on the sequences of the anti-hOX40L antibody amlitelimab (antibody, IgG4, V domains shown)
VH: EVQLVESGGGLVQPGGSLRLSCAASGFTFSNYAMNWVRQAPGKGLEWVSTISGSGGATRYADSVKGRFTISRDNSRNTVYLQMNSLRVEDTAVFYCTKDRLIMATVRGPYYYGMDVWGQGTTVTVSS
VL: DIQMTQSPSSLSASVGDRVTITCRASQSISSYLNWYQQKPGKAPNLLIYAASSLQSGVPSRFSGSGSETDFTLTISSLQPEDFATYYCQQSHSVSFTFGPGTKVDIK
As for B1, in test [1], the IC50, luminescence (RLU), hOX40 reporter cells with 50 ng/mL hOX40L was found to be 1.17 nM; the Mean IFNγ concentration, MLR + OX40L (1000 ng/ml); donor pairing 1; antibody 4 nM amounted to 201 pg/mL; the Mean IFNγ concentration, MLR + OX40L (1000 ng/ml); donor pairing 1; antibody 20 nM stood at 41.4 pg/mL; the Mean IFNγ concentration, MLR + OX40L (1000 ng/ml); donor pairing 1; antibody 100 nM stood at 145 pg/mL. In test [1], the Mean IFNγ concentration, MLR + OX40L (1000 ng/ml); donor pairing 3; antibody 4 nM was 1050 pg/mL; the Mean IFNγ concentration, MLR + OX40L (1000 ng/ml); donor pairing 3; antibody 20 nM was found to be 520 pg/mL; the Mean IFNγ concentration, MLR + OX40L (1000 ng/ml); donor pairing 3; antibody 100 nM was 75.4 pg/mL; the Mean IFNγ concentration, MLR + OX40L (1000 ng/ml); donor pairing 4; antibody 4 nM stood at 1170 pg/mL. Moreover, in test [1], the Mean IFNγ concentration, MLR + OX40L (1000 ng/ml); donor pairing 4; antibody 20 nM amounted to 424 pg/mL; the Mean IFNγ concentration, MLR + OX40L (1000 ng/ml); donor pairing 4; antibody 100 nM was found to be 161 pg/mL; the Mean IFNγ concentration, MLR + OX40L (1000 ng/ml); donor pairing 5; antibody 4 nM was 1350 pg/mL; the Mean IFNγ concentration, MLR + OX40L (1000 ng/ml); donor pairing 5; antibody 20 nM amounted to 780 pg/mL. For the same molecule, in test [1], the Mean IFNγ concentration, MLR + OX40L (1000 ng/ml); donor pairing 5; antibody 100 nM was 878 pg/mL; the Mean IFNγ concentration, MLR + OX40L (1000 ng/ml); donor pairing 6; antibody 4 nM is 780 pg/mL; the Mean IFNγ concentration, MLR + OX40L (1000 ng/ml); donor pairing 6; antibody 20 nM amounted to 279 pg/mL; the Mean IFNγ concentration, MLR + OX40L (1000 ng/ml); donor pairing 6; antibody 100 nM is 202 pg/mL. Moreover, in test [1], the Mean IFNγ concentration, MLR + OX40L (1000 ng/ml); donor pairing 8; antibody 4 nM was found to be 17.3 pg/mL; the Mean IFNγ concentration, MLR + OX40L (1000 ng/ml); donor pairing 8; antibody 20 nM was determined as 10.8 pg/mL; the Mean IFNγ concentration, MLR + OX40L (1000 ng/ml); donor pairing 8; antibody 100 nM worked out at 92.5 pg/mL. Also, in test [2], the Kd turned out to be 0.071 nM, the koff was determined as 0.000112 s⁻¹ and the kon was 1.58e+06 M⁻¹ s⁻¹.
